The results in this text go back to patent US20160237160A1, “ANTI-TWEAKR ANTIBODIES AND USES THEREOF” (BAYER PHARMA AKTIENGESELLSCHAFT, priority 2013, published 2016).

Assay [1] concerns the target T1, TWEAKR protein (TPP-2305) (Homo sapiens, UniProt Q9NP84).
T1 construct: TPP-2305; hTNFRSF12Aaa28-80; Human; 30R-AT080; 168; purchased Fitzgerald Inc 30R-AT080
The assay is described as follows: Biacore monovalent KD with TWEAKR protein. Type of assay: binding. The settings on record: first order 1:1 binding model. As to the method: Binding affinities of anti-TWEAKR antibodies were determined by surface plasmon resonance analysis on a Biacore T100 instrument (GE Healthcare Biacore, Inc.). Antibodies were immobilized onto a CM5 sensor chip through an indirect capturing reagent, anti-human IgG(Fc). Reagents from the “Human Antibody Capture Kit” (BR-1008-39, GE Healthcare Biacore, Inc.) were used as described by the manufacturer. Anti-TWEAKR antibodies were injected at a concentration of 10 μg/ml at 10 μl/min for 10 sec.
Sensorgrams were generated after in-line reference cell correction followed by buffer sample subtraction. The dissociation equilibrium constant (KD) was calculated based on the ratio of association (kon) and dissociation rated (koff) constants, obtained by fitting sensorgrams with a first order 1:1 binding model.
(In SPR one partner is held on a chip, and binding of the other changes the refractive index at the surface.)

Assay [2] addresses T2, TWEAKR(34-68)-Fc fusion protein (TPP-2203) (Homo sapiens, UniProt Q9NP84).
T2 construct: the truncated ectodomain 34-68 were expressed and purified as Fc fusion proteins; made in house
The assay is described as follows: ELISA with TWEAKR cysteine rich domain. The settings on record: coating 1 μg/ml; 0.08 and 0.3 μg/ml biotinylated IgG. Type of assay: binding. From the text:
(§1) In a first approach to characterize the binding epitope of the aforementioned antibodies, a N- and C-terminal truncation mutant of the TWEAKR ectodomain was generated and tested for its ability to bind to the different anti-TWEAKR antibodies. N-terminally, amino acids 28 to 33 and C-terminally amino acids 69 to 80 were deleted, thus the cysteine rich domain with disulfide bridges between Cys36-Cys49, Cys52-Cys67 and Cys55-Cys64 remains intact (compare FIG. 2). Both constructs, the full ectodomain 28-80 including the N- and C-terminus and the truncated ectodomain 34-68 were expressed and purified as Fc fusion proteins TPP-2202 and TPP-2203, respectively.
(§2) To analyze for binding, 1 μg/ml of the respective dimeric TWEAKR-Fc construct were coated and, 0.3 μg/ml and 0.08 μg/ml of biotinylated IgG were used as soluble binding partner. Detection was done with Streptavidin-HRP and Amplex-Red substrate. IgGs were biotinylated using an approximately 2-fold molar excess of biotin-LC-NHS (Pierce; Cat. No. 21347) according to manufacturer's instructions and desalted using Zeba desalting columns (Pierce; Cat. No. 89889).

Assay [3] addresses T3, TWEAKR-Fc mutein T33Q (TPP-1986) (Homo sapiens, UniProt Q9NP84, T33Q).
T3 construct: the full ectodomain (amino acids 28-80) with the following single amino acid substitutions; made in house
Description: ELISA mutein binding. The settings on record: coating 62 ng/ml; biotinylated IgG from 100 nM; read-out: IC50 of antibody binding, T33Q. As to the method: (§3) Therefore, the full ectodomain (amino acids 28-80) with the following single amino acid substitutions were expressed and purified as Fc fusion proteins: T33Q; S40R; W42A; M50A; R56P; H60K; L65Q.
(§4) To collect dose-response data, the different TWEAKR-Fc muteins were coated with a low concentration (62 ng/ml) in a 384-well Maxisorb ELISA plate and a serial 2fold dilution of biotinylated IgG starting with a concentration of 100 nM was used as soluble binding partner. Detection was done with Streptavidin-HRP and Amplex Red.
(§5) IgGs were biotinylated using an approximately 2-fold molar excess of biotin-LC-NHS (Pierce; Cat. No. 21347) according to manufacturer's instructions and desalted using Zeba desalting columns (Pierce; Cat. No. 89889). The dose-response data were fitted and IC50s determined.
(ELISA stands for enzyme-linked immunosorbent assay.)

In assay [4] the target is T4, TWEAKR-Fc mutein S40R (TPP-1987) (Homo sapiens, UniProt Q9NP84, S40R).
T4 construct: the full ectodomain (amino acids 28-80) with the following single amino acid substitutions; made in house
The assay is described as follows: ELISA mutein binding. The note with it: coating 62 ng/ml; biotinylated IgG from 100 nM; read-out: IC50 of antibody binding, S40R. As to the method:
as §3, §4, §5

Assay [5] addresses T5, TWEAKR-Fc mutein R56P (TPP-2683) (Homo sapiens, UniProt Q9NP84, R56P).
T5 construct: the full ectodomain (amino acids 28-80) with the following single amino acid substitutions; made in house
The assay is described as follows: ELISA mutein binding. The settings on record: coating 62 ng/ml; biotinylated IgG from 100 nM; read-out: IC50 of antibody binding, R56P. As to the method:
as §3, §4, §5

Assay [6] addresses T6, TWEAKR-Fc mutein L65Q (TPP-1990) (Homo sapiens, UniProt Q9NP84, L65Q).
T6 construct: the full ectodomain (amino acids 28-80) with the following single amino acid substitutions; made in house
Description: ELISA mutein binding. The note with it: coating 62 ng/ml; biotinylated IgG from 100 nM; read-out: IC50 of antibody binding, L65Q. As to the method: as §3, §4, §5

Assay [7] addresses T7, TWEAKR-Fc WT (TPP-599) (Homo sapiens, UniProt Q9NP84).
T7 construct: TPP-599; HUMAN-TNFRSF12Aaa28-80-hIgG1-Fc; 138; made in house
The assay is described as follows: ELISA mutein binding. The note with it: coating 62 ng/ml; biotinylated IgG from 100 nM; read-out: IC50 of antibody binding, WT. As to the method:
as §3, §4, §5

In assay [8] the target is T8, TWEAKR-Fc mutein H60K (TPP-1989) (Homo sapiens, UniProt Q9NP84, H60K).
T8 construct: the full ectodomain (amino acids 28-80) with the following single amino acid substitutions; made in house
Description: ELISA mutein binding. The settings on record: coating 62 ng/ml; biotinylated IgG from 100 nM; read-out: IC50 of antibody binding, H60K. As to the method: as §3, §4, §5

In assay [9] the target is T9, TWEAKR-Fc mutein W42A (TPP-1985) (Homo sapiens, UniProt Q9NP84, W42A).
T9 construct: the full ectodomain (amino acids 28-80) with the following single amino acid substitutions; made in house
The assay is described as follows: ELISA mutein binding. The note with it: coating 62 ng/ml; biotinylated IgG from 100 nM; read-out: IC50 of antibody binding, W42A. As to the method: as §3, §4, §5

In assay [10] the target is T10, TWEAKR-Fc mutein M50A (TPP-1988) (Homo sapiens, UniProt Q9NP84, M50A).
T10 construct: the full ectodomain (amino acids 28-80) with the following single amino acid substitutions; made in house
Description: ELISA mutein binding. The settings on record: coating 62 ng/ml; biotinylated IgG from 100 nM; read-out: IC50 of antibody binding, M50A. As to the method:
as §3, §4, §5

In assay [11] the target is T11, TWEAKR-Fc fusion protein (TPP-2202), aa 28-80 (Homo sapiens, UniProt Q9NP84).
T11 construct: the full ectodomain 28-80 including the N- and C-terminus; made in house
Description: ELISA with TWEAKR full ectodomain. Type of assay: binding. The note with it: coating 1 μg/ml; 0.08 and 0.3 μg/ml biotinylated IgG.
From the text: as §1, §2

Assay [12] has as its target T12, TWEAKR(28-68)-HIS (TPP-1984) (Homo sapiens, UniProt Q9NP84).
T12 construct: Extracellular domain with C-terminal truncation (28-68) fused to HIS6 tag; made in house
Description: ELISA with C-terminally truncated TWEAKR ectodomain. Type of assay: binding. The note with it: coating 1 μg/ml; 0.08 and 0.3 μg/ml biotinylated IgG. As to the method:
as §2

B1: P3G5(TPP-2195): reference anti-TWEAKR antibody, murine IgG2a, from WO2009/140177; SEQ ID NO 121/122 (protein)
light: DIVLTQSPASLAVSLGQRATISCRANKSVSTSSYSYMHWYQQKPGQPPKLLIKYASNLESGVPARFSGSGSGTDFILNIHPVEEEDAATYYCQHSRELPFTFGSGTKLEIKRADAAPTVSIFPPSSEQLTSGGASVVCFLNNFYPKDINVKWKIDGSERQNGVLNSWTDQDSKDSTYSMSSTLTLTKDEYERHNSYTCEATHKTSTSPIVKSFNRNEC
heavy: QVQLQQSGPEVVRPGVSVKISCKGSGYTFTDYGIHWVKQSHAKSLEWIGVISTYNGYTNYNQKFKGKATMTVDKSSSTAYMELARLTSEDSAIYYCARAYYGNLYYAMDYWGQGTSVTVSSAKTTAPSVYPLAPVCGDTTGSSVTLGCLVKGYFPEPVTLTWNSGSLSSGVHTFPAVLQSDLYTLSSSVTVTSSTWPSQSITCNVAHPASSTKVDKKIEPRGPTIKPCPPCKCPAPNLLGGPSVFIFPPKIKDVLMISLSPIVTCVVVDVSEDDPDVQISWFVNNVEVHTAQTQTHREDYNSTLRVVSALPIQHQDWMSGKEFKCKVNNKDLPAPIERTISKPKGSVRAPQVYVLPPPEEEMTKKQVTLTCMVTDFMPEDIYVEWTNNGKTELNYKNTEPVLDSDGSYFMYSKLRVEKKNWVERNSYSCSVVHEGLHNHHTTKSFSRTPG
modifications: Mus Musculus
The IC50 is the concentration needed to halve the response being measured. B1: the ka in assay [1] turned out to be 2.31e+06 M⁻¹ s⁻¹. The kd in assay [1] is 0.00122 s⁻¹. Further, the “ELISA binding to N- and C-terminally truncated construct (34-68)” value in [2] is “impaired binding”. Besides, the half-maximal inhibitory concentration (IC50) in assay [3], in assay [4], in [5], in assay [6], in assay [7] and in assay [8] was 1 to 150 pM in each case. Moreover, the IC50 in assay [9] is above 50000 pM; in assay [10], 1 to 150 pM. In assay [11], the “ELISA binding to full ectodomain (28-80)” value is reported as “saturated binding”. The “ELISA binding to C-terminally truncated ectodomain (28-68)” value in assay [12] is “impaired binding”.
